In experiment [1] the target is His-tagged ASH/RhoGAP domain of OCRL (536aa-901aa) (human) (UniProt Q01968). Briefly: ELISA. A general note: ELISA stands for enzyme-linked immunosorbent assay.
Experiment [2] has the same target. Description: ELISA. The source holds these as a separate data set.
Experiment [3] addresses HA-mCherry-tagged SdhA (Legionella pneumophila). Description: co-IP.
The target of experiment [4] is His-tagged ASH/RhoGAP domain of OCRL (536aa-901aa) (human) (UniProt Q01968). Briefly: ELISA. This is another data set of the same source.

The results in this text go back to publication PMC8669613.

Like-named read-outs stand apart in the source and are kept apart here.

Chain of His-tagged ASH/RhoGAP domain of OCRL (536aa-901aa) (human) (Q01968 536-901): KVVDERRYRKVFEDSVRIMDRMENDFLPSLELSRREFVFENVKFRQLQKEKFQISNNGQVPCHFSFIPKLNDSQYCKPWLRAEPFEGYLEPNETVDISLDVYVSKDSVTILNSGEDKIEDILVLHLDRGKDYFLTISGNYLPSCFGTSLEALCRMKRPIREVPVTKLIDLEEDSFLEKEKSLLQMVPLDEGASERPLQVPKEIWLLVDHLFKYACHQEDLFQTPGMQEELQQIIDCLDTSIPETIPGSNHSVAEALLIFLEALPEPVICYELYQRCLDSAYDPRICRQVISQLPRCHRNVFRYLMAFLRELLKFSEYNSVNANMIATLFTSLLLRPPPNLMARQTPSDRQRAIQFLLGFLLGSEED
Chain of GFP-tagged, full-length OCRL (Q01968 whole entry): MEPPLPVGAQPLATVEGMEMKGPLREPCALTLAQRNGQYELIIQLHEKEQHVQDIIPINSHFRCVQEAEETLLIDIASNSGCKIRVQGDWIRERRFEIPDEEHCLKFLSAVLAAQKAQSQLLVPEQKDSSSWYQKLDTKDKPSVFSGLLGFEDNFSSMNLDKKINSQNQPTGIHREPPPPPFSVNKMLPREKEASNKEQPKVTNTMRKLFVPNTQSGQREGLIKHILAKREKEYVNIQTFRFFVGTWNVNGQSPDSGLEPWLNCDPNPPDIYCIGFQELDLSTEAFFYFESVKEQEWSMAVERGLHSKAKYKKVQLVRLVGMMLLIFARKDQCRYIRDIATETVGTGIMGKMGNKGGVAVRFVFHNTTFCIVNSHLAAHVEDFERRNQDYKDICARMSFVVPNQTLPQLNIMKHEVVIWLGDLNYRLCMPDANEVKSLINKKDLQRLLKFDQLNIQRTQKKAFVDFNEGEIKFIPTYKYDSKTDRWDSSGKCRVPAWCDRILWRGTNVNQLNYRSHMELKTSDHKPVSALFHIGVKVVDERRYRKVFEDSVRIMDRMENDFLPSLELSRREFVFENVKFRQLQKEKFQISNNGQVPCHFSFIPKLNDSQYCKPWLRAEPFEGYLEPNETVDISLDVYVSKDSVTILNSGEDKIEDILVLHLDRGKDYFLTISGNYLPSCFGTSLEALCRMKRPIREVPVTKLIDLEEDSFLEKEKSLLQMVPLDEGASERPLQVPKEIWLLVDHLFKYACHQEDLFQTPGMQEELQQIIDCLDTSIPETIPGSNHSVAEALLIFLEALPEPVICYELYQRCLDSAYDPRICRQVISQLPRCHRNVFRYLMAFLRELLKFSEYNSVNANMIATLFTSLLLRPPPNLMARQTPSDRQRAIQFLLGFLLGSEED
Chain of AP complex beta subunit (P63010 whole entry, one chain of several): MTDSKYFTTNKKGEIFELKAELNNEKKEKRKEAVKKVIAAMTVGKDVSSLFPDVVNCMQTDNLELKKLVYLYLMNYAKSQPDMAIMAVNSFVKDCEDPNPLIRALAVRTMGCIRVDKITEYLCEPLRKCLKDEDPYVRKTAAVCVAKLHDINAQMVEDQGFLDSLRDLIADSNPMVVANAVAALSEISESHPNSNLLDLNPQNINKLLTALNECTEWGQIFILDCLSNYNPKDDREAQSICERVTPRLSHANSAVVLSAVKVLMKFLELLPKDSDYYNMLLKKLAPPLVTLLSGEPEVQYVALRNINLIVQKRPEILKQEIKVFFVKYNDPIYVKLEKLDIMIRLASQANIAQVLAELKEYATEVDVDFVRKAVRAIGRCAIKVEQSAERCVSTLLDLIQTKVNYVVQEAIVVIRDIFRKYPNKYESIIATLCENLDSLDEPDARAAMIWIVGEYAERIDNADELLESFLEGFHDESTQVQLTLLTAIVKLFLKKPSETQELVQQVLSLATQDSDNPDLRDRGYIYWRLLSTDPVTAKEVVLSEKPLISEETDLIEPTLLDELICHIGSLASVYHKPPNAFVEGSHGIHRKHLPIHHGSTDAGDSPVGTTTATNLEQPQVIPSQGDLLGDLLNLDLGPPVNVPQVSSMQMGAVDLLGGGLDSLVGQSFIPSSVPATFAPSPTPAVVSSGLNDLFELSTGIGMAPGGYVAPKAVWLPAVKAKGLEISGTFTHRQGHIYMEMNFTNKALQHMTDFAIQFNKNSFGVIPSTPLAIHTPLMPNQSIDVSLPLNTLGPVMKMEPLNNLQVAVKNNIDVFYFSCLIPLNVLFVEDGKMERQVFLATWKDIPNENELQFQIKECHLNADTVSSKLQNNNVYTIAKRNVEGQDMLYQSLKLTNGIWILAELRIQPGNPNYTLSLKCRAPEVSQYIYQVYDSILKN

For orientation: EC50 means the concentration needed to bring the measured effect to its halfway point. Low values mean greater potency, high ones weaker potency. With “GST-SdhA-CBM2A (1029-1080aa) (from UniProt Q6RCQ3 1029-1080) (domain or fragment)”, the EC50 in experiment [1] was 27.2 nM; in experiment [2], 8.1 nM.

As for “AP complex beta subunit (from UniProt P63010 1-937) (natural protein)”, the fold co-precipitation above the HA-mCherry control in experiment [3] turned out to be 29.5 fold.

Take “GFP-tagged, full-length OCRL (from UniProt Q01968 1-901) (natural protein)”: in experiment [3], the fold co-precipitation above the HA-mCherry control amounted to 27.5 fold.

As to “GST-SdhA-CBM2 (1029-1260aa) (from UniProt Q6RCQ3 1029-1260) (domain or fragment)”, the EC50 in experiment [4] amounted to 87.4 nM; in experiment [1], 80.7 nM.
